The text below walks through data of paper PMC5601474, “Radiation damage at the active site of human alanine:glyoxylate aminotransferase reveals that the cofactor position is finely tuned during catalysis” (Scientific Reports, 2017).

Residue numbers refer to the chain shown, from its start. Numbers in names are those of the source.

Data set [1] deals with the molecule itself. In words: crystal structure; orthorhombic crystal P212121 of AGT-Ma holo, hanging drop, 21 °C, PEG 6K 12%, 0.1 M MES pH 5.0; 1.7 Å; 2 molecules (1 dimer) per asymmetric unit.
Data set [2] concerns the molecule itself. Description: crystal structure; crystal P212121 of AGT-Ma-D183N holo, sitting drop, 21 °C, PEG 10K 17%, 0.1 M Bis-Tris pH 5.5, 0.1 M ammonium acetate; 1.8 Å; eight molecules (4 dimers) per asymmetric unit.

B1: human alanine:glyoxylate aminotransferase major allele, wild type (enzyme)
chain: MASHKLLVTPPKALLKPLSIPNQLLLGPGPSNLPPRIMAAGGLQMIGSMSKDMYQIMDEIKEGIQYVFQTRNPLTLVISGSGHCALEAALVNVLEPGDSFLVGANGIWGQRAVDIGERIGARVHPMTKDPGGHYTLQEVEEGLAQHKPVLLFLTHGESSTGVLQPLDGFGELCHRYKCLLLVDSVASLGGTPLYMDRQGIDILYSGSQKALNAPPGTSLISFSDKAKKKMYSRKTKPFSFYLDIKWLANFWGCDDQPRMYHHTIPVISLYSLRESLALIAEQGLENSWRQHREAAAYLHGRLQALGLQLFVKDPALRLPTVTTVAVPAGYDWRDIVSYVIDHFDIEIMGGLGPSTGKVLRIGLLGCNATRENVDRVTEALRAALQHCPKKKL
modifications: Lys-209 in Schiff base linkage with PLP (internal aldimine); the linkage is photoreduced and broken in the late dataset
notes: alanine:glyoxylate aminotransferase (AGT), human, major allele; also called AGT-Ma; AGT
For B1, the binding result in data set [1] is “binds”.

B2: human alanine:glyoxylate aminotransferase major allele, pathogenic variant D183N (enzyme)
chain: B1 chain with D183N
modifications: Lys-209 in Schiff base linkage with PLP (internal aldimine)
notes: alanine:glyoxylate aminotransferase (AGT), human, major allele, with the pathogenic (primary hyperoxaluria type I) mutation D183N; also called AGT-Ma D183N; AGT-D183N
Regarding B2, the binding result in data set [2] was “binds”.
